Patent publication US9969998B2, “Compositions of adenosine deaminase-2 (ADA2), variants thereof and methods of using same” (Halozyme, Inc., priority 2014, dated 2018)
Residue numbers refer to the chain shown, from its start. Names may count otherwise. Blank lines part the entries; values can stand above or below the molecule they belong to.

Assay: Adenosine deaminase (ADA) enzymatic activity assay kit
Assay type: biochemical
Details: purified protein at 5 μg/mL; for % of WT activity: compared to WT-ADA2
Description: Adenosine deaminase activity was determined using an adenosine deaminase (ADA) assay kit (Genway, San Diego, Calif.; Cat. No. BQ014EALD) with minor modifications. The ADA assay is based on the enzymatic deamination of adenosine to inosine, which is converted to hypoxanthine by purine nucleoside phosphorylase (PNP). Hypoxanthine is then converted to uric acid and hydrogen peroxide by xanthine oxidase (XOD). Hydrogen peroxide is further reacted with N-Ethyl-N-(2-hydroxy-3-sulfopropyl)-3-methylaniline (EHSPT) and 4-aminoantipyrine (4-AA) in the presence of peroxidase (POD) to generate quinone dye, which is monitored in a kinetic manner.
Briefly, 5 μL samples in duplicates (at appropriate dilutions to measure steady-state, non-saturating enzyme activity) were added to 120 μL R1 reagent (provided by the manufacturer; 50 mM Tris HCL, pH 8.0, 2 mM 4-AA, 0.1 U/mL PNP, 0.2 U/mL XOD, 0.6 U/mL peroxidase) in a 96 well plate, according to manufacturer's instructions. The mixtures were incubated at 37° C. for approximately 5 min and 60 μL of R2 reagent (provided by the manufacturer; 50 mM Tris HCl, pH 4.0, 10 mM Adenosine, 2 mM EHSPT) was added to the mixtures. Then, change in absorbance (AA) at 556 nm over time at 37° C. was measured. One unit of ADA is the amount of ADA that generates one μmole of inosine from adenosine per minute at 37° C. Adenosine deaminase activity in mU/mL was calculated using the following formula: 1 mU/mL=(ΔA/min×Tv)/(Sv×ϵ×1) • where Tv=total volume (185 μL), Sv=sample volume (5 μL), ϵ=32.2×10^−3 μM^−1 cm^−1, 1=0.5 cm.
Adenosine deaminase activity of WT rHuADA2 and variants tested above were determined using the adenosine deaminase activity (ADA) assay described in Example 4. Activity was assessed on purified rHuADA2 WT and variants that were diluted to 5 μg/mL, and then serially diluted 2 fold to generate 4 measurements.
Adenosine deaminase activity of PEGylated rHuADA2 and variants was assessed using the method described in Example 4, and compared to the activity of the corresponding non-PEGylated form.
Selected candidate variants described in Table 8 above, containing an amino acid substitution in a residue that play a role in enzymatic activity, were assessed for their adenosine deaminase activity using the method described in Example 4. To perform the experiments, purified WT rHuADA2 and tested variants were prepared at 5 μg/mL concentration to normalize the amount of protein in each experiment.

% of WT activity: 65%
B1: H267N: ADA2 variant SEQ ID NO:36 (protein)
chain: IDETRAHLLLKEKMMRLGGRLVLNTKEELANERLMTLKIAEMKEAMRTLIFPPSMHFFQAKHLIERSQVFNILRMMPKGAALHLHDIGIVTMDWLVRNVTYRPHCHICFTPRGIMQFRFAHPTPRPSEKCSKWILLEDYRKRVQNVTEFDDSLLRNFTLVTQHPEVIYTNQNVVWSKFETIFFTISGLIHYAPVFRDYVFRSMQEFYEDNVLYMEIRARLLPVYELSGEHHDEEWSVKTYQEVAQKFVETHPEFIGIKIIYSDNRSKDVAVIAESIRMAMGLRIKFPTVVAGFDLVGHEDTGHSLHDYKEALMIPAKDGVKLPYFFHAGETDWQGTSIDRNILDALMLNTTRIGHGFALSKHPAVRTYSWKKDIPIEVCPISNQVLKLVSDLRNHPVATLMATGHPMVISSDDPAMFGAKGLSYDFYEVFMGIGGMKADLRTLKQLAMNSIKYSTLLESEKNTFMEIWKKRWDKFIADVATK
modifications: human ADA2 H264N, mature numbering
Adenosine deaminase activity mU/ml: 50.4 mU/ml
Adenosine deaminase activity ΔA/min: 21.9 ΔA/min

% of WT activity: 12%
B2: E182S: ADA2 variant SEQ ID NO:47 (protein)
chain: B1 chain with E179S, N264H
modifications: human ADA2 E179S, mature numbering
Adenosine deaminase activity mU/ml: 9.5 mU/ml
Adenosine deaminase activity ΔA/min: 4.1 ΔA/min

% of WT activity: 128%
B3: L224A: ADA2 variant SEQ ID NO:42 (protein)
chain: B1 chain with L221A, N264H
modifications: human ADA2 L221A, mature numbering
Adenosine deaminase activity mU/ml: 100.1 mU/ml
Adenosine deaminase activity ΔA/min: 43.5 ΔA/min

% of WT activity: 153%
B4: H267G: ADA2 variant SEQ ID NO:37 (protein)
chain: B1 chain with N264G
modifications: human ADA2 H264G, mature numbering
Adenosine deaminase activity mU/ml: 119.1 mU/ml
Adenosine deaminase activity ΔA/min: 51.8 ΔA/min

% of WT activity: 104%
B5: R222N: ADA2 variant SEQ ID NO:40 (protein)
chain: B1 chain with R219N, N264H
modifications: human ADA2 R219N, mature numbering
Adenosine deaminase activity mU/ml: 81.5 mU/ml
Adenosine deaminase activity ΔA/min: 35.4 ΔA/min

% of WT activity: 85%
B6: S265V: ADA2 variant SEQ ID NO:52 (protein)
chain: B1 chain with S262V, N264H
modifications: human ADA2 S262V, mature numbering
Adenosine deaminase activity mU/ml: 66.1 mU/ml
Adenosine deaminase activity ΔA/min: 28.8 ΔA/min

% of WT activity: 11%
B7: E182A: ADA2 variant SEQ ID NO:46 (protein)
chain: B1 chain with E179A, N264H
modifications: human ADA2 E179A, mature numbering
Adenosine deaminase activity mU/ml: 8.6 mU/ml
Adenosine deaminase activity ΔA/min: 3.7 ΔA/min

% of WT activity: 10%
B8: E182V: ADA2 variant SEQ ID NO:49 (protein)
chain: B1 chain with E179V, N264H
modifications: human ADA2 E179V, mature numbering
Adenosine deaminase activity mU/ml: 8 mU/ml
Adenosine deaminase activity ΔA/min: 3.5 ΔA/min

% of WT activity: 91%
B9: H267A: ADA2 variant SEQ ID NO:34 (protein)
chain: B1 chain with N264A
modifications: human ADA2 H264A, mature numbering
Adenosine deaminase activity mU/ml: 70.9 mU/ml
Adenosine deaminase activity ΔA/min: 30.8 ΔA/min

% of WT activity: 60%
B10: S265A: ADA2 variant SEQ ID NO:51 (protein)
chain: B1 chain with S262A, N264H
modifications: human ADA2 S262A, mature numbering
Adenosine deaminase activity mU/ml: 47.1 mU/ml
Adenosine deaminase activity ΔA/min: 20.5 ΔA/min

% of WT activity: 152%
B11: R222K: ADA2 variant SEQ ID NO:38 (protein)
chain: B1 chain with R219K, N264H
modifications: human ADA2 R219K, mature numbering
Adenosine deaminase activity mU/ml: 118.5 mU/ml
Adenosine deaminase activity ΔA/min: 51.5 ΔA/min

% of WT activity: 8%
B12: E182T: ADA2 variant SEQ ID NO:48 (protein)
chain: B1 chain with E179T, N264H
modifications: human ADA2 E179T, mature numbering
Adenosine deaminase activity mU/ml: 6.2 mU/ml
Adenosine deaminase activity ΔA/min: 2.7 ΔA/min

% of WT activity: 123%
B13: L224V: ADA2 variant SEQ ID NO:43 (protein)
chain: B1 chain with L221V, N264H
modifications: human ADA2 L221V, mature numbering
Adenosine deaminase activity mU/ml: 96.1 mU/ml
Adenosine deaminase activity ΔA/min: 41.8 ΔA/min

% of WT activity: 113%
B14: L224G: ADA2 variant SEQ ID NO:44 (protein)
chain: B1 chain with L221G, N264H
modifications: human ADA2 L221G, mature numbering
Adenosine deaminase activity mU/ml: 88.2 mU/ml
Adenosine deaminase activity ΔA/min: 38.3 ΔA/min

% of WT activity: 40%
B15: R222A: ADA2 variant SEQ ID NO:41 (protein)
chain: B1 chain with R219A, N264H
modifications: human ADA2 R219A, mature numbering
Adenosine deaminase activity mU/ml: 31.2 mU/ml
Adenosine deaminase activity ΔA/min: 13.6 ΔA/min

% of WT activity: 9%
B16: E182G: ADA2 variant SEQ ID NO:50 (protein)
chain: B1 chain with E179G, N264H
modifications: human ADA2 E179G, mature numbering
Adenosine deaminase activity mU/ml: 6.9 mU/ml
Adenosine deaminase activity ΔA/min: 3 ΔA/min

% of WT activity: 23%
B17: E182D: ADA2 variant SEQ ID NO:45 (protein)
chain: B1 chain with E179D, N264H
modifications: human ADA2 E179D, mature numbering
Adenosine deaminase activity mU/ml: 18.1 mU/ml
Adenosine deaminase activity ΔA/min: 7.8 ΔA/min

% of WT activity: 105%
B18: S265M: ADA2 variant SEQ ID NO:53 (protein)
chain: B1 chain with S262M, N264H
modifications: human ADA2 S262M, mature numbering
Adenosine deaminase activity mU/ml: 81.6 mU/ml
Adenosine deaminase activity ΔA/min: 35.5 ΔA/min
